From article PMC2440032, “Odorranalectin Is a Small Peptide Lectin with Potential for Drug Delivery and Targeting” (PLoS ONE, 2008)
Positions of bridges follow the written chain, without caps; N, C: chain ends. Residues, ends and D or L forms follow the SMILES beside them. No end group written: not given here.

Columns and labels:
[1] = Stability of 125I-odorranalectin in mice plasma in vitro; type: in vitro ADME; settings: mice plasma 100% (v/v) and 50% in PBS pH 7.4, 5 µCi, 37 °C, sampled 0-5 h; radiochemical purity by silica gel paper chromatography and HPLC with radioactive detector
Description: In order to evaluate the stability of ^125I- odorranalectin in vitro, a degradation experiment of ^125I-odorranalectin in mice plasma was performed. The details are provided in the supplementary materials (Materials and Methods S1).
Stability of ^125I-odorranalectin in vitro. In order to evaluate the stability of ^125I- odorranalectin in vitro, a degradation experiment of ^125I-odorranalectin in mice plasma was performed. Briefly, 5 µCi ^125I-odorranalectin (about 10 µl) was added to 790 µl plasma (100%, v/v) freshly prepared and 400 µL plasma (50%) admixed with 390 µl PBS (pH 7.4) in two 1.5-ml centrifuge tubes, respectively, which maintained at 37 °C in a rolling water-bath incubator. Then at each time point (0, 1, 2, 3, 4 and 5 h), a glass microcap was used to take samples for silica gel paper chromatography (SGPC) analysis and high-performance liquid chromatography (HPLC) for calculating the radiochemical purity of ^125I-odorranalectin. In detail, the developing agent of SGPC was methanol: water = 85:15 (v/v); After spotted and the solvent reached the frontier, the silica gel paper strip was dried and cut to ten equations (Fig. S3 and Table S7), and then set in 10 tubes, following determined radiocounting of each piece in a SN-695 Intellectual Radio-immunity γ Measurement (Shanghai Institute of Nuclear Research Ri Huan Instrument Factory, China), respectively. […]

[2] = tested on: human erythrocytes; test: Erythrocytes hemagglutination; type: cell-based; settings: blood group not named
[3] = SPR, odorranalectin and its mutants binding L-fucose; settings: peptide immobilized, L-fucose as analyte, NA = no binding to L-fucose, read-out: binding affinity (KD)
Description: Real time detection of odorranalectin and its mutants binding to glycoproteins and L-fucose was recorded by using a Biacore 3000 [21]–[24]. The details are provided in the supplementary materials (Materials and Methods S1).
SPR Analysis. Real time detection of odorranalectin and its mutants binding to glycoproteins and L-fucose was recorded by using a Biacore 3000 [21-24]. Odorranalectin was immobilized covalently via their primary amines to carboxyl groups within a dextran layer on the sensor chip CM-5 according to the manufacturer’s specifications. After chip activation with 0.4 M 1-ethyl-3- (3-dimethylaminopropyl) carbodiimide hydrochloride and 10 mM N-hydroxysuccinimide, odorranalectin or its mutants (in 10 mM sodium acetate buffer, pH 4.0) at a concentration of 100 μg/ml was passed through the flow cells at a rate of 5 μl/min. After immobilization, the chip was capped by exposure to 1 M ethanolamine (pH 8.5).
All analyses were performed at a flow rate of 30 μl/min. Before loading of analytes, the chip was equilibrated with 10 mM HEPES-buffered saline containing 3 mM EDTA and 0.005% surfactant P-20, pH 7.4 (HBS-EP). […]
Association and dissociation rate constants (ka and kd) were calculated by using BIA evaluation 4.0 software (Biacore AB, Sweden). The affinity constant (KD) was calculated from the ka and kd. […]

[4] = Tissue distribution of 125I-odorranalectin in vivo; parameters: species or system KM mice; settings: 400 µCi·kg^-1, mice, 5-300 min, Mean ± SD, n=3
Description: Sixty-three female KM mice (18∼22 g) were grouped randomly into three groups receiving oral, intravenous and intranasal administration of ^125I-odorranalectin at equal radiation dose (400 µCi·kg^−1), respectively. The detail procedures are provided in the supplementary materials (Materials and Methods S1).
(§1) Each experiment was carried out in triplicate. Values are given as means±SD. All the concentration data were plotted directly as radiocounting-time curves of the blood and tissues, and the area under the curve (AUC0→t) was calculated by the trapezoidal rule. The statistical differences between per oral or intranasal administrations and intravenous administration were assessed using student's t test and P<0.05 as statistical significance.
Tissue distribution of ^125I-odorranalectin in vivo. Sixty-three female KM mice (18~22 g) were grouped randomly to three groups receiving oral, intravenous and intranasal administration at equal radiation dose (400 µCi·kg^-1), respectively. The procedure for intranasal administration was performed gently and slowly so as to allow the mice to inhale all of the preparations (each nostril 10 µl). At different time intervals (5, 15, 30, 60, 120, 180 and 300 min) following administration, blood sample was collected via eye puncture; subsequently, the mice were humanly sacrificed, and tissues such as heart, liver, spleen, lung, stomach (content removed), kidney and brain were harvested and stuffed into a special tube after the remnant blood was blotted by tissue paper, following weighing, respectively. Finally, the radiocounting of each tissue was determined in a SN-695 Intellectual Radio-immunity γ Measurement to evaluate odorranalectin intake.
as §1, with “Data analysis. Each” for “Each”, “means ± SD.” for “means±SD.”, “under” for “under the”, “student’s” for “student's”, “P< 0.05” for “P<0.05”

CC(C)C[C@@H]1NC(=O)[C@H](C(C)C)NC(=O)CNC(=O)[C@H](CC(N)=O)NC(=O)[C@@H]2CCCN2C(=O)[C@H](Cc2ccc(O)cc2)NC(=O)[C@H](CCCNC(=N)N)NC(=O)[C@H](Cc2ccccc2)NC(=O)[C@@H](NC(=O)[C@H](CCCCN)NC(=O)[C@@H]2CCCN2C(=O)[C@H](CO)NC(=O)[C@H](C)NC(=O)[C@@H](N)Cc2ccc(O)cc2)CSSC[C@@H](C(=O)N[C@H](C(=O)O)[C@@H](C)O)NC(=O)[C@H](C)NC1=O [odorranalectin] (HELM PEPTIDE1{Y.A.S.P.K.C.F.R.Y.P.N.G.V.L.A.C.T}$PEPTIDE1,PEPTIDE1,6:R3-16:R3$$$V2.0)
Time of stability in mice plasma [1]: more than 5 hours
minimum concentration (MIC) to agglutinate intact human erythrocytes [2]: 0.75 µg/mL

YASPGGFRYPNGVLACT [Odorranalectin T17/G17]
Kd [3]: 8.2 mM

^125I-odorranalectin: odorranalectin labeled by 125I with iodogen method (YASPKCFRYPNGVLACT; disulfide 6-16; ends not checked; also: 125I on a tyrosine, which one is not given here)
Time of stability in mice plasma [1]: at least 5 hours
AUC Blood ([4]; in (intranasal)): 6.77±3.05 *10^7 CPM·min
AUC Brain ([4]; in (intranasal)): 0.36±0.15 *10^7 CPM·min
AUC Heart ([4]; in (intranasal)): 2.88±1.16 *10^7 CPM·min
AUC Kideny ([4]; in (intranasal)): 5.17±2.10 *10^7 CPM·min
AUC Liver ([4]; in (intranasal)): 3.53±1.50 *10^7 CPM·min
AUC Lung ([4]; in (intranasal)): 12.50±3.77 *10^7 CPM·min
AUC Spleen ([4]; in (intranasal)): 4.48±1.86 *10^7 CPM·min
AUC Stomach ([4]; in (intranasal)): 125.61±44.28 *10^7 CPM·min
AUC Blood ([4]; iv): 5.41±1.11 *10^7 CPM·min
AUC Brain ([4]; iv): 0.46±0.047 *10^7 CPM·min
AUC Heart ([4]; iv): 3.37±0.51 *10^7 CPM·min
AUC Kideny ([4]; iv): 8.47±1.41 *10^7 CPM·min
AUC Liver ([4]; iv): 98.51±6.22 *10^7 CPM·min
AUC Lung ([4]; iv): 246.41±62.56 *10^7 CPM·min
AUC Spleen ([4]; iv): 64.82±8.61 *10^7 CPM·min
AUC Stomach ([4]; iv): 20.90±3.09 *10^7 CPM·min
AUC Blood ([4]; po): 4.89±0.69 *10^7 CPM·min
AUC Brain ([4]; po): 0.25±0.024 *10^7 CPM·min
AUC Heart ([4]; po): 1.99±0.24 *10^7 CPM·min
AUC Kideny ([4]; po): 3.84±0.76 *10^7 CPM·min
AUC Liver ([4]; po): 2.42±0.29 *10^7 CPM·min
AUC Lung ([4]; po): 4.02±0.51 *10^7 CPM·min
AUC Spleen ([4]; po): 3.60±0.35 *10^7 CPM·min
AUC Stomach ([4]; po): 126.64±32.27 *10^7 CPM·min
